molecular target: T1, c-erbB-2 ECD with a Ser-Gly-His6 C-terminal fusion (UniProt P04626 23-652); test: SPR BIAcore
T1 construct: extracellular domain; Expressed from CHO cells, IMAC purified; coupled to a CM5 chip, coated on plates, or biotinylated with NHS-LC-biotin; also called c-erbB-2 extracellular domain; biotinylated c-erbB-2 ECD
Description: All assays were performed in triplicate. Briefly, […] of radioiodinated sFv was added to 5×10^6 SK-OV cells in the presence of increasing concentrations of unlabeled sFv from the same preparation. After a 30 minute incubation at 20° C., the samples were washed with PBS at 4° C. and centrifuged at 500 g. The amount of labeled sFv bound to the cells was determined by counting the pellets in a gamma counter and the K_a, and K_d were calculated using the EBDA program (V 2.0, G. A. McPherson, 1983). The K_d of all the other isolated sFv were determined using surface plasmon resonance in a BIAcore (Pharmacia). In a BIAcore flow cell, approximately 1400 resonance units (RU) of c-erbB-2 ECD (25 μg/ml in 10 mM sodium acetate, pH 4.5) was coupled to a CM5 sensor chip (Johnsson et al. (1991), supra). Association and dissociation-rates were measured under continuous flow of […] using a concentration range from 50 to 800 nM. Rate constant $kon$ was determined from a plot of (1(dR/dt))/t vs concentration (Karlsson et al. (1991), supra). Rate constant $Hoff$ was determined from the dissociation part of the sensorgram at the highest concentration of sFv analyzed.
Mutants obtained by combining mutations of C6MH3-B1 or C6MH3-B47 with mutations from D library clones (D1, D2, D3, D5, D6). Rate constants $kon$ and $koff$ were measured by SPR in a BIAcore, and the K_d calculated.

Binder | Kd [nM] | Kd (C6.5)/Kd (mut) | Kd (parent)/Kd (mut) | koff [s⁻¹] | kon [M⁻¹ s⁻¹]
C6-9L1 (scFv, C6L1 with the VL CDR3 of C6ML3-9) scFv: QVQLLQSGAELKKPGESLKISCKGSGYSFTSYWIAWVRQMPGKGLEYMGLIYPGDSDTKYSPSFQGQVTISVDKSVSTAYLQWSSLKPSDSAVYFCARHDVGYCSSSNCAKWPEYFQHWGQGTLVTVSSGGGGSGGGGSGGGGSQSVLTQPPSVSGAPGQWVTISCSGSSSNIGNNYVSWYQQLPGTAPKLLIYDNNKRPSGVPDRFSGSQSGTSASLAISGLRSEDEADYYCASWDYTLSGWVFGGGTKLTVLG | 0.33 | 49 | 3 | 0.0003 | 920000
C6-B1D2 (scFv, Combined B1 and D2 mutations on C6ML3-9) scFv: QVQLLQSGAELKKPGESLKISCKGSGYSFTSYWIAWVRQMPGKGLEYMGLIYPGDSDTKYSPSFQGQVTISVDKSVSTAYLQWSSLKPSDSAVYFCARHDVGYCTDRTCAKWPEWLGVWGQGTLVTVSSGGGGSGGGGSGGGGSQSVLTQPPSVSAAPGQKVTISCSGSSSNIGNNYVSWYQQLPGTAPKLLIYGHTNRPAGVPDRFSGSKSGTSASLAISGFRSEDEADYYCASWDYTLSGWVFGGGTKLTVLG | 0.015 | 1070 | 8 | 1e-05 | 690000
C6-12L1 (scFv, C6L1 with the VL CDR3 of C6ML3-12) scFv: QVQLLQSGAELKKPGESLKISCKGSGYSFTSYWIAWVRQMPGKGLEYMGLIYPGDSDTKYSPSFQGQVTISVDKSVSTAYLQWSSLKPSDSAVYFCARHDVGYCSSSNCAKWPEYFQHWGQGTLVTVSSGGGGSGGGGSGGGGSQSVLTQPPSVSGAPGQWVTISCSGSSSNIGNNYVSWYQQLPGTAPKLLIYDNNKRPSGVPDRFSGSQSGTSASLAISGLRSEDEADYYCAAWDYSRSGWVFGGGTKLTVLG | 0.19 | 84 | 8.4 | 0.00013 | 670000
C6-B47D1 (scFv, Combined B47 and D1 mutations on C6ML3-9) scFv: QVQLLQSGAELKKPGESLKISCKGSGYSFTSYWIAWVRQMPGKGLEYMGLIYPGDSDTKYSPSFQGQVTISVDKSVSTAYLQWSSLKPSDSAVYFCARHDVGYCTDRSCAKWPEWLHVWGQGTLVTVSSGGGGSGGGGSGGGGSQSVLTQPPSVSAAPGQKVTISCSGSSSNIGNNYVSWYQQLPGTAPKLLIYGHTNRPAGVPDRFSGSKSGTSASLAISGFRSEDEADYYCASWDYTLSGWVFGGGTKLTVLG | 0.068 | 235 | 1.6 | 4.8e-05 | 710000
C6-B47D6 (scFv, Combined B47 and D6 mutations on C6ML3-9) scFv: QVQLLQSGAELKKPGESLKISCKGSGYSFTSYWIAWVRQMPGKGLEYMGLIYPGDSDTKYSPSFQGQVTISVDKSVSTAYLQWSSLKPSDSAVYFCARHDVGYCTDRSCAKWPEWMYPWGQGTLVTVSSGGGGSGGGGSGGGGSQSVLTQPPSVSAAPGQKVTISCSGSSSNIGNNYVSWYQQLPGTAPKLLIYGHTNRPAGVPDRFSGSKSGTSASLAISGFRSEDEADYYCASWDYTLSGWVFGGGTKLTVLG | 0.051 | 314 | 2.2 | 3e-05 | 590000
C6-B1D6 (scFv, Combined B1 and D6 mutations on C6ML3-9) scFv: QVQLLQSGAELKKPGESLKISCKGSGYSFTSYWIAWVRQMPGKGLEYMGLIYPGDSDTKYSPSFQGQVTISVDKSVSTAYLQWSSLKPSDSAVYFCARHDVGYCTDRTCAKWPEWMYPWGQGTLVTVSSGGGGSGGGGSGGGGSQSVLTQPPSVSAAPGQKVTISCSGSSSNIGNNYVSWYQQLPGTAPKLLIYGHTNRPAGVPDRFSGSKSGTSASLAISGFRSEDEADYYCASWDYTLSGWVFGGGTKLTVLG | 0.032 | 500 | 3.8 | 1.3e-05 | 410000
C6-B1D5 (scFv, Combined B1 and D5 mutations on C6ML3-9) scFv: QVQLLQSGAELKKPGESLKISCKGSGYSFTSYWIAWVRQMPGKGLEYMGLIYPGDSDTKYSPSFQGQVTISVDKSVSTAYLQWSSLKPSDSAVYFCARHDVGYCTDRTCAKWPEWMQMWGQGTLVTVSSGGGGSGGGGSGGGGSQSVLTQPPSVSAAPGQKVTISCSGSSSNIGNNYVSWYQQLPGTAPKLLIYGHTNRPAGVPDRFSGSKSGTSASLAISGFRSEDEADYYCASWDYTLSGWVFGGGTKLTVLG | 0.035 | 457 | 3.4 | 1.8e-05 | 510000
C6-B1D3 (scFv, Combined B1 and D3 mutations on C6ML3-9) scFv: QVQLLQSGAELKKPGESLKISCKGSGYSFTSYWIAWVRQMPGKGLEYMGLIYPGDSDTKYSPSFQGQVTISVDKSVSTAYLQWSSLKPSDSAVYFCARHDVGYCTDRTCAKWPEWLDNWGQGTLVTVSSGGGGSGGGGSGGGGSQSVLTQPPSVSAAPGQKVTISCSGSSSNIGNNYVSWYQQLPGTAPKLLIYGHTNRPAGVPDRFSGSKSGTSASLAISGFRSEDEADYYCASWDYTLSGWVFGGGTKLTVLG | 0.013 | 1230 | 9.2 | 8e-06 | 640000
C6-B1D1 (scFv, Combined B and D library mutations on C6ML3-9) scFv: QVQLLQSGAELKKPGESLKISCKGSGYSFTSYWIAWVRQMPGKGLEYMGLIYPGDSDTKYSPSFQGQVTISVDKSVSTAYLQWSSLKPSDSAVYFCARHDVGYCTDRTCAKWPEWLHVWGQGTLVTVSSGGGGSGGGGSGGGGSQSVLTQPPSVSAAPGQKVTISCSGSSSNIGNNYVSWYQQLPGTAPKLLIYGHTNRPAGVPDRFSGSKSGTSASLAISGFRSEDEADYYCASWDYTLSGWVFGGGTKLTVLG | 0.032 | 500 | 3.8 | 1.5e-05 | 470000
C6-B47D2 (scFv, Combined B47 and D2 mutations on C6ML3-9) scFv: QVQLLQSGAELKKPGESLKISCKGSGYSFTSYWIAWVRQMPGKGLEYMGLIYPGDSDTKYSPSFQGQVTISVDKSVSTAYLQWSSLKPSDSAVYFCARHDVGYCTDRSCAKWPEWLGVWGQGTLVTVSSGGGGSGGGGSGGGGSQSVLTQPPSVSAAPGQKVTISCSGSSSNIGNNYVSWYQQLPGTAPKLLIYGHTNRPAGVPDRFSGSKSGTSASLAISGFRSEDEADYYCASWDYTLSGWVFGGGTKLTVLG | 0.044 | 364 | 2.5 | 4.3e-05 | 980000
C6-B47D5 (scFv, Combined B47 and D5 mutations on C6ML3-9) scFv: QVQLLQSGAELKKPGESLKISCKGSGYSFTSYWIAWVRQMPGKGLEYMGLIYPGDSDTKYSPSFQGQVTISVDKSVSTAYLQWSSLKPSDSAVYFCARHDVGYCTDRSCAKWPEWMQMWGQGTLVTVSSGGGGSGGGGSGGGGSQSVLTQPPSVSAAPGQKVTISCSGSSSNIGNNYVSWYQQLPGTAPKLLIYGHTNRPAGVPDRFSGSKSGTSASLAISGFRSEDEADYYCASWDYTLSGWVFGGGTKLTVLG | 0.063 | 254 | 1.7 | 3.9e-05 | 620000
C6-B47D3 (scFv, Combined B47 and D3 mutations on C6ML3-9) scFv: QVQLLQSGAELKKPGESLKISCKGSGYSFTSYWIAWVRQMPGKGLEYMGLIYPGDSDTKYSPSFQGQVTISVDKSVSTAYLQWSSLKPSDSAVYFCARHDVGYCTDRSCAKWPEWLDNWGQGTLVTVSSGGGGSGGGGSGGGGSQSVLTQPPSVSAAPGQKVTISCSGSSSNIGNNYVSWYQQLPGTAPKLLIYGHTNRPAGVPDRFSGSKSGTSASLAISGFRSEDEADYYCASWDYTLSGWVFGGGTKLTVLG | 0.048 | 333 | 2.3 | 3.2e-05 | 660000

molecular target: T1, c-erbB-2 ECD with a Ser-Gly-His6 …; test: SPR BIAcore; remark: another data set of the same source

Binder | Kd [nM] | Kd (mutant)/Kd (C6.5) | koff [s⁻¹] | kon [M⁻¹ s⁻¹]
C6.5D96A (scFv, C6.5 VH CDR3 scan mutant; Kabat numbering) scFv: QVQLLQSGAELKKPGESLKISCKGSGYSFTSYWIAWVRQMPGKGLEYMGLIYPGDSDTKYSPSFQGQVTISVDKSVSTAYLQWSSLKPSDSAVYFCARHAVGYCSSSNCAKWPEYFQHWGQGTLVTVSSGGGGSGGGGSGGGGSQSVLTQPPSVSAAPGQKVTISCSGSSSNIGNNYVSWYQQLPGTAPKLLIYGHTNRPAGVPDRFSGSKSGTSASLAISGFRSEDEADYYCAAWDDSLSGWVFGGGTKLTVLG | 45 | 2.8 | 0.01 | 220000
C6.5C100S/C100eS (scFv, C6.5 VH CDR3 scan mutant; Kabat numbering) scFv: QVQLLQSGAELKKPGESLKISCKGSGYSFTSYWIAWVRQMPGKGLEYMGLIYPGDSDTKYSPSFQGQVTISVDKSVSTAYLQWSSLKPSDSAVYFCARHDVGYSSSSNSAKWPEYFQHWGQGTLVTVSSGGGGSGGGGSGGGGSQSVLTQPPSVSAAPGQKVTISCSGSSSNIGNNYVSWYQQLPGTAPKLLIYGHTNRPAGVPDRFSGSKSGTSASLAISGFRSEDEADYYCAAWDDSLSGWVFGGGTKLTVLG | 280 | 17.5 | 0.138 | 500000

From patent US6512097
